Experimental data published in patent US20220098305A1 (Hoffmann-La Roche, published 2022).

T1: human ICOS (human, UniProt Q9Y6W8 21-199)
T1 construct: The cell that carries it is named under assay; also called huICOS; CD278
T1 sequence: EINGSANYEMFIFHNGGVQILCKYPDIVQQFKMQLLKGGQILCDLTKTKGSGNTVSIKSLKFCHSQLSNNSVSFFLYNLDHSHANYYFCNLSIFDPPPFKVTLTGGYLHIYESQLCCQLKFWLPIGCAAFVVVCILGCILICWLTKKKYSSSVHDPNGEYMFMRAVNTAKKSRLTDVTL

B1: Molecule 29 (ICOS H1143v2_1) (antibody, human IgG1, kappa, L234A L235A, V domains shown)
VH: EVQLLESGGGLVQPGGSLRLSCAASGFDFSSAYDMSWVRQAPGKGLEWVSVIYYGDGITYYADSVKGRFTISRDNSKNTLYLQMNSLRAEDTAVYFCARGAFLGSSYYLSLWGQGTLVTVSS
VL: DIQMTQSPSSLSASVGDRVTITCRASENIYNWLAWYQQKPGKAPKLLIYDASKLASGVPSRFSGSGSGTDFTLTISSLQPEDFATYYCQQAYTYGNIDNAFGGGTKVEIKR
notes: Human IgG format
B2: Molecule 31 (ICOS H1143v2_3) (antibody, human IgG1, kappa, L234A L235A, V domains shown)
VH: EVQLLESGGGLVQPGGSLRLSCAASGFDFSSAYDMSWVRQAPGKGLEWIGVIYYGDGITYYADSVKGRFTISRDNSNTLYLQMNSLRAEDTAVYFCARGAFLGSSYYLSLWGQGTLVTVSS
VL: DIQMTQSPSSLSASVGDRVTITCRASENIYNWLAWYQQKPGKAPKLLIYDASKLASGVPSRFSGSGSGTDFTLTISSLQPEDFATYYCQQAYTYGNIDNAFGGGTKVEIKR
notes: Human IgG format
B3: Molecule 30 (ICOS H1143v2_2) (antibody, human IgG1, kappa, L234A L235A, V domains shown)
VH: EVQLLESGGGLVQPGGSLRLSCAASGFDFSSAYDMSWVRQAPGKGLEWVSVIYYGDGITYYADSVKGRFTISKTSSKTTLYLQMNSLRAEDTAVYFCARGAFLGSSYYLSLWGQGTLVTVSS
VL: DIQMTQSPSSLSASVGDRVTITCRASENIYNWLAWYQQKPGKAPKLLIYDASKLASGVPSRFSGSGSGTDFTLTISSLQPEDFATYYCQQAYTYGNIDNAFGGGTKVEIKR
notes: Human IgG format
B4: Molecule 32 (ICOS 1138) (antibody, human IgG1, kappa, L234A L235A, V domains shown)
VH: QSLEESGGDLVKPGASLTLTCTASGFDLSSYYYMSWVRQAPGKGLEWIASIYADIYGGTTHYASWAKGRFTISKTSSTTVTLQMTSLTAADTATYFCAREDGSRYGGSGYYNLWGPGTLVTVSS
VL: ALVMTQTPSSVSAAVGGTVTINCQASQNIYSNLAWYQQKPGQPPKLLIYAASYLTSGVSSRFKGSGAGTQFTLTISGVESADAATYYCQQGHTTDNIDNAFGGGTEVVVKR
notes: Human IgG format; also called parental antibody of Molecules 33-35
B5: Molecule 27 (ICOS H009v1_3) (antibody, human IgG1, kappa, L234A L235A, V domains shown)
VH: EVQLVESGGGLVQPGRSLRLSCTASGFTFSDYWMNWVRQAPGKGLEWVAQIRNKPYNYETYYAASVKGRFTISRDDSKSIAYLQMNSLKTEDTAVYYCTWPRLRSSDWHFDVWGKGTTVTVSS
VL: DIQMTQSPSSLSASVGDRVTITCQASQDINKNIAWYQQKPGKAPKLLIWYTSTLQTGVPSRFSGSGSGTDFTFTISSLQPEDIATYYCLQFDNLYTFGQGTKLEIKR
notes: Human IgG format
B6: Molecule 21, bispecific 2+1 anti-ICOS (1143v1)/anti-FAP (4B9) huIgG1 P329GLALA kih (bispecific antibody)
heavy 1: QSLEESGGDLVKPGASLTLTCKASGFDFSSAYDMSWVRQAPGKGLEWIGVVYYGDGITYYATWAKGRFTISKTSSTTVPLQMTSLTAADTATYFCARGAFLGSSYYLSLWGQGTLVTVSSASTKGPSVFPLAPSSKSTSGGTAALGCLVKDYFPEPVTVSWNSGALTSGVHTFPAVLQSSGLYSLSSVVTVPSSSLGTQTYICNVNHKPSNTKVDKKVEPKSCDKTHTCPPCPAPEAAGGPSVFLFPPKPKDTLMISRTPEVTCVVVDVSHEDPEVKFNWYVDGVEVHNAKTKPREEQYNSTYRVVSVLTVLHQDWLNGKEYKCKVSNKALGAPIEKTISKAKGQPREPQVCTLPPSRDELTKNQVSLSCAVKGFYPSDIAVEWESNGQPENNYKTTPPVLDSDGSFFLVSKLTVDKSRWQQGNVFSCSVMHEALHNHYTQKSLSLSPGGGGGSGGGGSGGGGSGGGGSEIVLTQSPGTLSLSPGERATLSCRASQSVTSSYLAWYQQKPGQAPRLLINVGSRRATGIPDRFSGSGSGTDFTLTISRLEPEDFAVYYCQQGIMLPPTFGQGTKVEIK
heavy 2: not shown
light: AIDMTQTPASVEAAVGGTVTINCQASENIYNWLAWYQQKPGQPPKLLIYDASKLASGVPSRFSASGSGTQFTLTISAVESADAATYYCQQAYTYGNIDNAFGGGTEVVVSRTVAAPSVFIFPPSDEQLKSGTASVVCLLNNFYPREAKVQWKVDNALQSGNSQESVTEQDSKDSTYSLSSTLTLSKADYEKHKVYACEVTHQGLSSPVTKSFNRGEC
B7: Molecule 44, bispecific 2+1 anti-ICOS (1143)/anti-FAP (4B9) huIgG1 P329GLALA kih (bispecific antibody)
heavy 1: QSLEESGGDLVKPGASLTLTCKASGFDFSSAYDMSWVRQAPGKGLEWIGSVYYGDGITYYATWAKGRFTISKTSSTTVPLQMTSLTAADTATYFCARGAFLGSSYYLSLWGQGTLVTVSSASTKGPSVFPLAPSSKSTSGGTAALGCLVKDYFPEPVTVSWNSGALTSGVHTFPAVLQSSGLYSLSSVVTVPSSSLGTQTYICNVNHKPSNTKVDKKVEPKSCDKTHTCPPCPAPEAAGGPSVFLFPPKPKDTLMISRTPEVTCVVVDVSHEDPEVKFNWYVDGVEVHNAKTKPREEQYNSTYRVVSVLTVLHQDWLNGKEYKCKVSNKALGAPIEKTISKAKGQPREPQVCTLPPSRDELTKNQVSLSCAVKGFYPSDIAVEWESNGQPENNYKTTPPVLDSDGSFFLVSKLTVDKSRWQQGNVFSCSVMHEALHNHYTQKSLSLSPGGGGGSGGGGSGGGGSGGGGSEIVLTQSPGTLSLSPGERATLSCRASQSVTSSYLAWYQQKPGQAPRLLINVGSRRATGIPDRFSGSGSGTDFTLTISRLEPEDFAVYYCQQGIMLPPTFGQGTKVEIK
heavy 2: not shown
light: AIDMTQTPASVEAAVGGTVTINCQASENIYNWLAWYQQKPGQPPKLLIYDASKLASGVPSRFSASGSGTQFTLTISAVESADAATYYCQQAYTYGNIDNAFGGGTEVVVSRTVAAPSVFIFPPSDEQLKSGTASVVCLLNNFYPREAKVQWKVDNALQSGNSQESVTEQDSKDSTYSLSSTLTLSKADYEKHKVYACEVTHQGLSSPVTKSFNRGEC
B8: Molecule 1 (JMab136 IgG) (antibody, V domains shown)
VH: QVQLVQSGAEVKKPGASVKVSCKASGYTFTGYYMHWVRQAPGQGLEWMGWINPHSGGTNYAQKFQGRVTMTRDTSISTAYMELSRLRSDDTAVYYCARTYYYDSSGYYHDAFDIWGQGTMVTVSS
VL: DIQMTQSPSSVSASVGDRVTITCRASQGISRLLAWYQQKPGKAPKLLIYVASSLQSGVPSRFSGSGSGTDFTLTISSLQPEDFATYYCQQANSFPWTFGQGTKVEIK
notes: IgG
B9: Molecule 28 (ICOS 1143v2) (antibody, human IgG1, kappa, L234A L235A, V domains shown)
VH: QSLEESGGDLVKPGASLTLTCKASGFDFSSAYDMSWVRQAPGKGLEWIGVIYYGDGITYYATSVKGRFTISKTSSTTVPLQMTSLTAADTATYFCARGAFLGSSYYLSLWGQGTLVTVSS
VL: AIDMTQTPASVEAAVGGTVTINCQASENIYNWLAWYQQKPGQPPKLLIYDASKLASGVPSRFSASGSGTQFTLTISAVESADAATYYCQQAYTYGNIDNAFGGGTEVVVSR
notes: Human IgG format; also called parent antibody of Molecules 29-31

Tests used:
human ICOS [1] = molecular target: T1, human ICOS; assay: flow cytometry, CHO cells expressing human ICOS
human ICOS [2] = molecular target: T1, human ICOS; assay: flow cytometry on CHO cells expressing human ICOS, PE-labelled secondary antibody; y axis printed LOG10(MFI PE)
human ICOS [3] = molecular target: T1, human ICOS; assay: cell-based or functional assay
human ICOS [4] = molecular target: T1, human ICOS; assay: flow cytometry on CHO cells expressing human ICOS, PE-labelled secondary antibody; y axis printed LOG10(MFI PE); remark: listed apart in the source
human FAP = molecular target: T2, human FAP (human, UniProt Q12884 1-760); assay: flow cytometry, NIH/3T3-huFAP clone 19 cells
T2 construct: also called hu FAP

human ICOS [5] = molecular target: T1, human ICOS; assay: flow cytometry, SR cells
human ICOS [6] = molecular target: T1, human ICOS; assay: flow cytometry on SR cells expressing human ICOS, geometric MFI
human ICOS [7] = molecular target: T1, human ICOS; assay: flow cytometry, CHO cells expressing human ICOS; remark: listed apart in the source
Description: (§1) Briefly, suspension cells were harvested, counted, checked for viability and re-suspended at 1 million cells per ml in FACS buffer (PBS with 0.1% BSA). […] The staining was fixed for 20 min at 4° C. in the dark, using 75 μl of 1% PFA in FACS buffer per well.
(§2) Fluorescence was analyzed by FACS using a FACS Fortessa (Software FACS Diva). Binding curves and EC50 values were obtained using GraphPadPrism 7.

human ICOS [8] = molecular target: T1, human ICOS; assay: flow cytometry on CHO cells stably expressing human ICOS, PE-labelled secondary antibody, median fluorescence intensity (MFI)
Description: as §1, §2

Binder	EC50 (human ICOS [1])	Max (Log10(MFI)) (human ICOS [1])	EC50 (read off the curve) (human ICOS [2])	EC50 of activation of Jurkat-NFAT reporter cell line (human ICOS [3])	Max (Counts/sec), Jurkat-NFAT reporter cell line (human ICOS [3])	EC50 (read off the curve) (human ICOS [4])	EC50 (human FAP)	EC50 (human ICOS [5])	EC50 (read off the curve) (human ICOS [6])	EC50 (human ICOS [7])	EC50 (read off the curve) (human ICOS [8])
B1	5.2 nM	2.38 Log10(MFI)	~6 nM	27.6 nM	63800 Counts/sec	–	–	–	–	–	–
B2	1.75 nM	4.44 Log10(MFI)	~2 nM	23.2 nM	52000 Counts/sec	–	–	–	–	–	–
B3	2.25 nM	2.75 Log10(MFI)	~2 nM	29.4 nM	55300 Counts/sec	–	–	–	–	–	–
B4	2.12 nM	4.3 Log10(MFI)	–	38.7 nM	28500 Counts/sec	~2 nM	–	–	–	–	–
B5	2.7 nM	6.85 Log10(MFI)	–	~7.99 nM	47400 Counts/sec	–	–	–	–	–	–
B6	–	–	–	–	–	–	0.00501 nM	0.00057 nM	~0.5 nM	–	–
B7	–	–	–	–	–	–	0.00434 nM	0.00217 nM	~2 nM	–	–
B8	–	–	–	–	–	–	–	–	–	0.0023 nM	~2 nM
B9	2.56 nM	4.88 Log10(MFI)	~3 nM	28 nM	52300 Counts/sec	–	–	–	–	–	–
